± gives the standard deviation of the averaged measurements.
System: Saccharomyces cerevisiae
Assay: protein stability index of tFT-peptide fusion (C-terminal peptide) (PSI (0-1 scale)); higher = more stable (slower turnover)
Details: temperature: 30 C
Protocol: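 MPS profiling in S. cerevisiae of the yeast C-terminome library: the last 12 aa of each annotated ORF are fused to the C-terminus of a sfGFP-mCherry timer, after a GGGS linker. Cells are FACS-sorted into 8 mCherry/sfGFP bins and deep-sequenced. PSI runs from 0 (unstable) to 1 (stable); wild type and das1Δ backgrounds, two technical replicates each.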

[1] = genetic background: das1 deletion

Sequence | protein stability index [1] | protein stability index (genetic background: wild type)
TNVQANSYRKVP [SDP1 C-terminal 12 aa] | 0.6856 ± 0.0029 | 0.522 ± 0.054
HKGSTLDIMSID [QNS1 C-terminal 12 aa] | 0.72 ± 0.0096 | 0.667 ± 0.025
DKKVNNNIILFL [YAL037C-A C-terminal 12 aa] | 0.692 ± 0.042 | 0.704 ± 0.011
RPVLSEEQRKNC [YDR344C C-terminal 12 aa] | 0.668 ± 0.0083 | 0.6794 ± 0.0048
AEELWADIVGSA [TRP2 C-terminal 12 aa] | 0.75126 ± 0.00045 | 0.684 ± 0.019
ENVLNKEGVLQK [GIN4 C-terminal 12 aa] | 0.682 ± 0.012 | 0.734 ± 0.047
NSEKDQVPILSS [SSK22 C-terminal 12 aa] | 0.702 ± 0.011 | 0.729 ± 0.041
DNKPKLSDVEKD [GEA2 C-terminal 12 aa] | 0.698 ± 0.019 | 0.707 ± 0.017
DIYEIRGTALDD [DSL1 C-terminal 12 aa] | 0.6986 ± 0.0054 | 0.699 ± 0.052
IQTINEVRTNYM [RSE1 C-terminal 12 aa] | 0.69 ± 0.041 | 0.744 ± 0.11
HELESINSGGAW [YMR31 C-terminal 12 aa] | 0.702 ± 0.0072 | 0.689 ± 0.0016
IREFPEYFAAQA [RPL10 C-terminal 12 aa] | 0.682 ± 0.015 | 0.671 ± 0.03
QHIKTHKKHGDI [MSN2 C-terminal 12 aa] | 0.67783 ± 0.00033 | 0.667 ± 0.014
IRDILKLGHPTR [GYP8 C-terminal 12 aa] | 0.699 ± 0.043 | 0.666 ± 0.034
FINCSSKYNGLQ [YBR224W C-terminal 12 aa] | 0.687 ± 0.0088 | 0.703 ± 0.019
LEKLLKTVLNTL [ORC2 C-terminal 12 aa] | 0.69009 ± 0.00049 | 0.696 ± 0.028
YSFNKLTMTILY [YER137W-A C-terminal 12 aa] | 0.6999 ± 0.0014 | 0.633 ± 0.026
KVHQGKYNGPGL [AI2 C-terminal 12 aa] | 0.69085 ± 0.00022 | 0.727 ± 0.037
EPAYDGASVEQQ [THR1 C-terminal 12 aa] | 0.688 ± 0.0074 | 0.6724 ± 0.0055
MYCASFQLPANV [TRM5 C-terminal 12 aa] | 0.673 ± 0.015 | 0.6578 ± 0.0027
IIQSYINLLEEN [NKP2 C-terminal 12 aa] | 0.708 ± 0.017 | 0.756 ± 0.059

Sequence | protein stability index [1] | protein stability index (genetic background: wild type)
KKHDWSDISQLW [OSH3 C-terminal 12 aa] | 0.7283 ± 0.0011 | 0.728 ± 0.016
ISQWREWIDEKL [SRP102 C-terminal 12 aa] | 0.679 ± 0.025 | 0.72 ± 0.029
DDDEFDEDEFED [PAH1 C-terminal 12 aa] | 0.695 ± 0.03 | 0.7188 ± 0.0021
TLHDDRESKSED [CMK2 C-terminal 12 aa] | 0.6829 ± 0.0059 | 0.694 ± 0.036
LLRPRSPVQKAQ [KAR4 C-terminal 12 aa] | 0.69 ± 0.025 | 0.658 ± 0.064
APTPEACESCSG [RNR3 C-terminal 12 aa] | 0.696 ± 0.01 | 0.6947 ± 0.003
VLREEVKKEEEN [KRS1 C-terminal 12 aa] | 0.6913 ± 0.006 | 0.7 ± 0.025
IMPDRFDYENYY [TMS1 C-terminal 12 aa] | 0.739 ± 0.0052 | 0.698 ± 0.0097
KRLIGIAEATLN [SEC31 C-terminal 12 aa] | 0.666 ± 0.032 | 0.667 ± 0.014
SYLKGYIGCKIS [YPR092W C-terminal 12 aa] | 0.745 ± 0.042 | 0.569 ± 0.033
EHIGAQNTGDGR [YER187W C-terminal 12 aa] | 0.6894 ± 0.0014 | 0.679 ± 0.033
NLGYSKDQVFKF [MCR1 C-terminal 12 aa] | 0.708 ± 0.0082 | 0.688 ± 0.039
STDQLPELSFEV [TVP38 C-terminal 12 aa] | 0.699 ± 0.013 | 0.722 ± 0.0051
GNISLLYSQGRL [RSC6 C-terminal 12 aa] | 0.723 ± 0.013 | 0.714 ± 0.053
TIISKGYAKIRD [TAF4 C-terminal 12 aa] | 0.68 ± 0.022 | 0.7 ± 0.049
SLEAVSKMDKLA [AAT1 C-terminal 12 aa] | 0.723 ± 0.012 | 0.679 ± 0.014
ETYGSKIVYRFS [GAL10 C-terminal 12 aa] | 0.692 ± 0.031 | 0.7035 ± 0.0018
MIWKWLIEDKKN [MRS2 C-terminal 12 aa] | 0.72 ± 0.011 | 0.69 ± 0.052
LLEKLDIKDKKE [YVC1 C-terminal 12 aa] | 0.661 ± 0.018 | 0.703 ± 0.024
GYETAIHYLRMY [TPC1 C-terminal 12 aa] | 0.701 ± 0.013 | 0.3927 ± 0.0037
VGLLTAIIMSIM [PST1 C-terminal 12 aa] | 0.576 ± 0.011 | 0.529 ± 0.021

Sequence | protein stability index [1] | protein stability index (genetic background: wild type)
NVDVVTPNSIFI [TMA17 C-terminal 12 aa] | 0.67 ± 0.036 | 0.6982 ± 0.0046
RLNNWLFGWNDL [NUP53 C-terminal 12 aa] | 0.785 ± 0.012 | 0.707 ± 0.0094
VKKYSMKKKKKR [YDR320W-B C-terminal 12 aa] | 0.671 ± 0.014 | 0.62 ± 0.0065
KNRRGNRSGYRR [THO1 C-terminal 12 aa] | 0.703 ± 0.0025 | 0.689 ± 0.024
PKRGGLFGFGRL [JIP4 C-terminal 12 aa] | 0.7853 ± 0.0046 | 0.762 ± 0.023
LSFADYRKKLLK [SET3 C-terminal 12 aa] | 0.70897 ± 0.00015 | 0.689 ± 0.016
LRTVASRLKERY [PNO1 C-terminal 12 aa] | 0.698 ± 0.013 | 0.706 ± 0.056
DQLEDTSSHDEL [MPD2 C-terminal 12 aa] | 0.7476 ± 0.0003 | 0.7 ± 0.025
SINGVNLELIKD [MIX14 C-terminal 12 aa] | 0.691 ± 0.041 | 0.635 ± 0.016
NNLQSFYFDNSN [BCK2 C-terminal 12 aa] | 0.689 ± 0.018 | 0.706 ± 0.03
SNRILALGYILL [ATG32 C-terminal 12 aa] | 0.669 ± 0.0077 | 0.658 ± 0.0079
ENIEVILSNGRM [SNF12 C-terminal 12 aa] | 0.676 ± 0.03 | 0.689 ± 0.037
VLVFSWRHIFCF [YJL120W C-terminal 12 aa] | 0.467 ± 0.026 | 0.179 ± 0.0033
GIGFTNTSKKIA [RCL1 C-terminal 12 aa] | 0.708 ± 0.027 | 0.5373 ± 0.0012
KHKNYLSFNFTK [YLL065W C-terminal 12 aa] | 0.698 ± 0.038 | 0.69 ± 0.012
LLVEKKDIPSNS [PRM4 C-terminal 12 aa] | 0.6965 ± 0.001 | 0.675 ± 0.013
DVYVLFYERVYD [UBP7 C-terminal 12 aa] | 0.682 ± 0.036 | 0.682 ± 0.03
LVSMTILVSGLI [SHE9 C-terminal 12 aa] | 0.246 ± 0.025 | 0.262 ± 0.02
YKTQTGNFQVRL [APM3 C-terminal 12 aa] | 0.706 ± 0.0095 | 0.722 ± 0.0093
VGVERLLNDRFR [ARP4 C-terminal 12 aa] | 0.6944 ± 0.0026 | 0.695 ± 0.028
MVYKPEDSLLKI [MTR2 C-terminal 12 aa] | 0.684 ± 0.039 | 0.67 ± 0.014

Sequence | protein stability index [1] | protein stability index (genetic background: wild type)
LPFGCVDDVNRQ [MSK1 C-terminal 12 aa] | 0.706 ± 0.05 | 0.719 ± 0.021
LFSVLVALLALL [CRH1 C-terminal 12 aa] | 0.661 ± 0.037 | 0.48 ± 0.017
DDDDDGPYADDS [GSY2 C-terminal 12 aa] | 0.707 ± 0.0079 | 0.706 ± 0.019
QDKQVKSWWRFW [CBP4 C-terminal 12 aa] | 0.762 ± 0.016 | 0.7144 ± 0.0053
VATADIKNEDKN [BNA2 C-terminal 12 aa] | 0.671 ± 0.021 | 0.731 ± 0.066
QKAKLNKLDSKK [NOP7 C-terminal 12 aa] | 0.677 ± 0.0057 | 0.704 ± 0.068
TKKANILDPDYL [FLC1 C-terminal 12 aa] | 0.685 ± 0.023 | 0.728 ± 0.032
WKLRAKYGIRKD [MGR2 C-terminal 12 aa] | 0.6905 ± 0.0028 | 0.684 ± 0.02
YSIEVVPHGLIA [GLO1 C-terminal 12 aa] | 0.607 ± 0.0097 | 0.5946 ± 0.0015
ETPLLYNDTHTP [IES5 C-terminal 12 aa] | 0.696 ± 0.042 | 0.695 ± 0.009
GKGKKKMVVLEW [ETR1 C-terminal 12 aa] | 0.692 ± 0.026 | 0.712 ± 0.018
TTPTLPTFRTVA [FKS3 C-terminal 12 aa] | 0.686 ± 0.018 | 0.6971 ± 0.0014
AGSSKFLKGAKI [MRS1 C-terminal 12 aa] | 0.707 ± 0.037 | 0.673 ± 0.0098
YVFIVNHAAEQT [NUP116 C-terminal 12 aa] | 0.677 ± 0.024 | 0.659 ± 0.009
DLLDKDVLLISE [CDC7 C-terminal 12 aa] | 0.706 ± 0.0095 | 0.6734 ± 0.0014
YPQQLLGYTDNG [YKL115C C-terminal 12 aa] | 0.628 ± 0.013 | 0.597 ± 0.0073
GESSINSSTRHA [CTK2 C-terminal 12 aa] | 0.683 ± 0.015 | 0.6853 ± 0.0058
PSPGFHMYGCHT [YLR156W C-terminal 12 aa] | 0.708 ± 0.022 | 0.695 ± 0.0084
FTPSYIPEPVLL [YOR161W-B C-terminal 12 aa] | 0.671 ± 0.012 | 0.654 ± 0.013
FELVQPKGRRKH [TSR2 C-terminal 12 aa] | 0.711 ± 0.016 | 0.686 ± 0.058

— the supplement of paper PMC10724198
